pKd: −log10 of the molar value.
Key:
Mouse EGFR-Fc (mouse) [1] = molecular target: Mouse EGFR-Fc (mouse) (UniProt Q01279); test: SPR, 25 °C
[2] = molecular target: human EGFR-Fc mutant (L325V, S340A) (human) (UniProt P00533); test: SPR (Biacore), 37 °C
Mouse EGFR-Fc (mouse) [3] = molecular target: Mouse EGFR-Fc (mouse) (UniProt Q01279); test: SPR (Biacore), 25 °C
Human EGFR-Fc (human) [4] = molecular target: Human EGFR-Fc (human) (UniProt P00533); test: yeast surface display titration with human EGFR (panel Yeast display: HuL6-7D12)
Mouse EGFR-Fc (mouse) [5] = molecular target: Mouse EGFR-Fc (mouse) (UniProt Q01279); test: SPR, murine EGFR-Fc
[6] = molecular target: human EGFR-Fc mutant (L325V, S340A) (human) (UniProt P00533); test: SPR, human EGFR-Fc (L325V, S340A)
Mouse EGFR-Fc (mouse) [7] = molecular target: Mouse EGFR-Fc (mouse) (UniProt Q01279); test: SPR, murine EGFR-Fc; bracket from the bars of 7D12 and 9G8 to this bar
Human EGFR-Fc (human) [8] = molecular target: Human EGFR-Fc (human) (UniProt P00533); test: SPR (Biacore), 37 °C

Substance	pKd (Mouse EGFR-Fc (mouse) [5])	pKd [6]	further results
7D12 (VHH)			pKd (Mouse EGFR-Fc (mouse) [1]): 5.14; pKd [2]: 6.68; pKd (Mouse EGFR-Fc (mouse) [3]): 5.14; pKd (Human EGFR-Fc (human) [4]): 8.68
7D12-(AP)12-9G8	6.72	9.22	k' (Mouse EGFR-Fc (mouse) [7]): 950000
7D12-(E4K4)5-9G8	6.21	8.70	
7D12-(EAAAK)8-9G8	6.71		
7D12-(GGGS)3-9G8	6.79		
9G8 (VHH)			pKd (Human EGFR-Fc (human) [8]): 8.42; pKd [2]: 7.89

More lines, in order of rising pKd (Mouse EGFR-Fc (mouse) [5]), values ahead:

pKd (Mouse EGFR-Fc (mouse) [5])	pKd [6]	Substance	further results
7.77		7D12-KGR-(EAAAK)8-AGG-[-AA]9G8	
8.06		7D12-FFH-(EAAAK)6-GGG-[-AA]9G8	
8.51		7D12-SSV-(E4K4)4-GPG-[-AA]9G8	
8.92		7D12-(EAAAK)8-VSG-[-AA]9G8	
8.92	10.40	7D12-WMV-(GGGS)6-VTG-[-AA]9G8	
9.15	10.40	7D12-(AP)12-VSG-[-AA]9G8	
